According to the supplement of paper PMC6757056:
± gives the standard deviation of the averaged measurements.

B1: library; a variant is named by its letters at N, in order (parent)
chain: GCUGUCACCGAGAAACUGUGAAGUAUAUCUUAAACCUGGGCACUUAAAAGAUAUAUGGAGUUAGUAGUGCAACCUGCUCGGUCUGAUGAGUCCNNNNNNGGACGAAACAGC

Key:
cyclic di-GMP [1] = variants of: B1; assay: normalized RNA/DNA level without ligand (relative to sTRSVctl = 100) (log10 (% of sTRSVctl)); HEK293T; ligand: cyclic di-GMP (c-di-GMP-II aptamer); higher = less ribozyme self-cleavage, higher mRNA level; conditions: reporter: mCherry (pCS4076), ligand present: no
In short: (§1)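 For each 6-well well, 4 µg of library plasmid encoding mCherry-linked ribozyme switches, or eGFP-linked ones in some ligand experiments, was transfected into HEK293T. Any ligand was added 1 h before transfection, and RNA was extracted with EDTA 72 h after it, then reverse-transcribed, amplified, barcoded and sequenced. RNA level was obtained by dividing RNA reads by DNA reads, normalizing to a spiked-in non-cleaving sequence or to the top sequences, then scaling and log-transforming. The top set was 25 sequences, scaling was ×100 with log10, and ≥100 DNA reads were required.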

cyclic di-GMP [2] = variants of: B1; assay: normalized RNA/DNA level with ligand (relative to sTRSVctl = 100) (log10 (% of sTRSVctl)); HEK293T; ligand: cyclic di-GMP (c-di-GMP-II aptamer); ligand concentration (+) RNA-Seq: 1 mM; higher = less ribozyme self-cleavage, higher mRNA level; conditions: reporter: mCherry (pCS4076), ligand present: yes
In short: as §1

CACGUA
normalized RNA/DNA level without ligand (log10) (cyclic di-GMP [1]): 1.504 ± 0.014
normalized RNA/DNA level with ligand (log10) (cyclic di-GMP [2]): 1.7 ± 0.056

CACGUC
normalized RNA/DNA level without ligand (log10) (cyclic di-GMP [1]): 1.73 ± 0.075
normalized RNA/DNA level with ligand (log10) (cyclic di-GMP [2]): 1.87 ± 0.11

CACGUU
normalized RNA/DNA level without ligand (log10) (cyclic di-GMP [1]): 1.729 ± 0.0022
normalized RNA/DNA level with ligand (log10) (cyclic di-GMP [2]): 1.86 ± 0.088

UACGGU
normalized RNA/DNA level without ligand (log10) (cyclic di-GMP [1]): 1.6 ± 0.032
normalized RNA/DNA level with ligand (log10) (cyclic di-GMP [2]): 1.78 ± 0.098

UACGGG
normalized RNA/DNA level without ligand (log10) (cyclic di-GMP [1]): 1.62 ± 0.048
normalized RNA/DNA level with ligand (log10) (cyclic di-GMP [2]): 1.79 ± 0.09

UACGGC
normalized RNA/DNA level without ligand (log10) (cyclic di-GMP [1]): 1.72 ± 0.033
normalized RNA/DNA level with ligand (log10) (cyclic di-GMP [2]): 1.84 ± 0.1

UACCGU
normalized RNA/DNA level without ligand (log10) (cyclic di-GMP [1]): 1.59 ± 0.027
normalized RNA/DNA level with ligand (log10) (cyclic di-GMP [2]): 1.75 ± 0.1

UACCGG
normalized RNA/DNA level without ligand (log10) (cyclic di-GMP [1]): 1.68 ± 0.025
normalized RNA/DNA level with ligand (log10) (cyclic di-GMP [2]): 1.87 ± 0.11

UACCGC
normalized RNA/DNA level without ligand (log10) (cyclic di-GMP [1]): 1.73 ± 0.031
normalized RNA/DNA level with ligand (log10) (cyclic di-GMP [2]): 1.86 ± 0.14

UACCGA
normalized RNA/DNA level without ligand (log10) (cyclic di-GMP [1]): 1.56 ± 0.058
normalized RNA/DNA level with ligand (log10) (cyclic di-GMP [2]): 1.77 ± 0.068

CACAGG
normalized RNA/DNA level without ligand (log10) (cyclic di-GMP [1]): 1.68 ± 0.029
normalized RNA/DNA level with ligand (log10) (cyclic di-GMP [2]): 1.804 ± 0.0089

CACAGC
normalized RNA/DNA level without ligand (log10) (cyclic di-GMP [1]): 1.729 ± 0.0089
normalized RNA/DNA level with ligand (log10) (cyclic di-GMP [2]): 1.84 ± 0.085

CAAUCG
normalized RNA/DNA level without ligand (log10) (cyclic di-GMP [1]): 1.77 ± 0.039
normalized RNA/DNA level with ligand (log10) (cyclic di-GMP [2]): 1.89 ± 0.16

AACGCG
normalized RNA/DNA level without ligand (log10) (cyclic di-GMP [1]): 1.702 ± 0.008
normalized RNA/DNA level with ligand (log10) (cyclic di-GMP [2]): 1.82 ± 0.12

AACGCA
normalized RNA/DNA level without ligand (log10) (cyclic di-GMP [1]): 1.67 ± 0.024
normalized RNA/DNA level with ligand (log10) (cyclic di-GMP [2]): 1.83 ± 0.076

GACUGC
normalized RNA/DNA level without ligand (log10) (cyclic di-GMP [1]): 1.705 ± 0.012
normalized RNA/DNA level with ligand (log10) (cyclic di-GMP [2]): 1.88 ± 0.068

GACUGU
normalized RNA/DNA level without ligand (log10) (cyclic di-GMP [1]): 1.654 ± 0.0065
normalized RNA/DNA level with ligand (log10) (cyclic di-GMP [2]): 1.8 ± 0.15

GACUGG
normalized RNA/DNA level without ligand (log10) (cyclic di-GMP [1]): 1.68 ± 0.074
normalized RNA/DNA level with ligand (log10) (cyclic di-GMP [2]): 1.78 ± 0.1

GACUGA
normalized RNA/DNA level without ligand (log10) (cyclic di-GMP [1]): 1.57 ± 0.041
normalized RNA/DNA level with ligand (log10) (cyclic di-GMP [2]): 1.72 ± 0.12

AACAUA
normalized RNA/DNA level without ligand (log10) (cyclic di-GMP [1]): 1.52 ± 0.076
normalized RNA/DNA level with ligand (log10) (cyclic di-GMP [2]): 1.74 ± 0.12

AACAUU
normalized RNA/DNA level without ligand (log10) (cyclic di-GMP [1]): 1.7 ± 0.037
normalized RNA/DNA level with ligand (log10) (cyclic di-GMP [2]): 1.84 ± 0.067

CACAUC
normalized RNA/DNA level without ligand (log10) (cyclic di-GMP [1]): 1.682 ± 0.0036
normalized RNA/DNA level with ligand (log10) (cyclic di-GMP [2]): 1.74 ± 0.034

CACAUG
normalized RNA/DNA level without ligand (log10) (cyclic di-GMP [1]): 1.717 ± 0.01
normalized RNA/DNA level with ligand (log10) (cyclic di-GMP [2]): 1.84 ± 0.095

CAGAAC
normalized RNA/DNA level without ligand (log10) (cyclic di-GMP [1]): 1.54 ± 0.07
normalized RNA/DNA level with ligand (log10) (cyclic di-GMP [2]): 1.75 ± 0.089

CAGAAU
normalized RNA/DNA level without ligand (log10) (cyclic di-GMP [1]): 1.38 ± 0.13
normalized RNA/DNA level with ligand (log10) (cyclic di-GMP [2]): 1.53 ± 0.12

CAGAAG
normalized RNA/DNA level without ligand (log10) (cyclic di-GMP [1]): 1.68 ± 0.039
normalized RNA/DNA level with ligand (log10) (cyclic di-GMP [2]): 1.86 ± 0.092

UAGAAC
normalized RNA/DNA level without ligand (log10) (cyclic di-GMP [1]): 1.641 ± 0.014
normalized RNA/DNA level with ligand (log10) (cyclic di-GMP [2]): 1.82 ± 0.13

UAGAAG
normalized RNA/DNA level without ligand (log10) (cyclic di-GMP [1]): 1.61 ± 0.027
normalized RNA/DNA level with ligand (log10) (cyclic di-GMP [2]): 1.8 ± 0.11

AACAAA
normalized RNA/DNA level without ligand (log10) (cyclic di-GMP [1]): 1.45 ± 0.11
normalized RNA/DNA level with ligand (log10) (cyclic di-GMP [2]): 1.65 ± 0.079

AACAAC
normalized RNA/DNA level without ligand (log10) (cyclic di-GMP [1]): 1.542 ± 0.01
normalized RNA/DNA level with ligand (log10) (cyclic di-GMP [2]): 1.75 ± 0.11

GACAUU
normalized RNA/DNA level without ligand (log10) (cyclic di-GMP [1]): 1.66 ± 0.044
normalized RNA/DNA level with ligand (log10) (cyclic di-GMP [2]): 1.8 ± 0.074

GACAUG
normalized RNA/DNA level without ligand (log10) (cyclic di-GMP [1]): 1.61 ± 0.032
normalized RNA/DNA level with ligand (log10) (cyclic di-GMP [2]): 1.75 ± 0.12

GACAUC
normalized RNA/DNA level without ligand (log10) (cyclic di-GMP [1]): 1.67 ± 0.037
normalized RNA/DNA level with ligand (log10) (cyclic di-GMP [2]): 1.84 ± 0.059

AACGAC
normalized RNA/DNA level without ligand (log10) (cyclic di-GMP [1]): 1.6 ± 0.04
normalized RNA/DNA level with ligand (log10) (cyclic di-GMP [2]): 1.79 ± 0.12

AACGAA
normalized RNA/DNA level without ligand (log10) (cyclic di-GMP [1]): 1.38 ± 0.059
normalized RNA/DNA level with ligand (log10) (cyclic di-GMP [2]): 1.59 ± 0.16

GACAAA
normalized RNA/DNA level without ligand (log10) (cyclic di-GMP [1]): 1.47 ± 0.11
normalized RNA/DNA level with ligand (log10) (cyclic di-GMP [2]): 1.66 ± 0.077

GACAAU
normalized RNA/DNA level without ligand (log10) (cyclic di-GMP [1]): 1.59 ± 0.062
normalized RNA/DNA level with ligand (log10) (cyclic di-GMP [2]): 1.74 ± 0.071

UACAUU
normalized RNA/DNA level without ligand (log10) (cyclic di-GMP [1]): 1.59 ± 0.034
normalized RNA/DNA level with ligand (log10) (cyclic di-GMP [2]): 1.78 ± 0.09

UACAUG
normalized RNA/DNA level without ligand (log10) (cyclic di-GMP [1]): 1.711 ± 0.013
normalized RNA/DNA level with ligand (log10) (cyclic di-GMP [2]): 1.85 ± 0.14

UACAUC
normalized RNA/DNA level without ligand (log10) (cyclic di-GMP [1]): 1.64 ± 0.037
normalized RNA/DNA level with ligand (log10) (cyclic di-GMP [2]): 1.81 ± 0.13

UACAUA
normalized RNA/DNA level without ligand (log10) (cyclic di-GMP [1]): 1.712 ± 0.017
normalized RNA/DNA level with ligand (log10) (cyclic di-GMP [2]): 1.86 ± 0.065

GACCCG
normalized RNA/DNA level without ligand (log10) (cyclic di-GMP [1]): 1.7824 ± 0.00091
normalized RNA/DNA level with ligand (log10) (cyclic di-GMP [2]): 1.86 ± 0.11

GACCCC
normalized RNA/DNA level without ligand (log10) (cyclic di-GMP [1]): 1.8 ± 0.055
normalized RNA/DNA level with ligand (log10) (cyclic di-GMP [2]): 1.88 ± 0.14

GACCCU
normalized RNA/DNA level without ligand (log10) (cyclic di-GMP [1]): 1.779 ± 0.0057
normalized RNA/DNA level with ligand (log10) (cyclic di-GMP [2]): 1.87 ± 0.089

GACCCA
normalized RNA/DNA level without ligand (log10) (cyclic di-GMP [1]): 1.75 ± 0.02
normalized RNA/DNA level with ligand (log10) (cyclic di-GMP [2]): 1.85 ± 0.093

GAAUCA
normalized RNA/DNA level without ligand (log10) (cyclic di-GMP [1]): 1.638 ± 0.0066
normalized RNA/DNA level with ligand (log10) (cyclic di-GMP [2]): 1.82 ± 0.1

GAAUCU
normalized RNA/DNA level without ligand (log10) (cyclic di-GMP [1]): 1.698 ± 0.0076
normalized RNA/DNA level with ligand (log10) (cyclic di-GMP [2]): 1.82 ± 0.12

GAAUCC
normalized RNA/DNA level without ligand (log10) (cyclic di-GMP [1]): 1.75 ± 0.058
normalized RNA/DNA level with ligand (log10) (cyclic di-GMP [2]): 1.86 ± 0.076

GAAUCG
normalized RNA/DNA level without ligand (log10) (cyclic di-GMP [1]): 1.67 ± 0.041
normalized RNA/DNA level with ligand (log10) (cyclic di-GMP [2]): 1.8 ± 0.096

AACUUC
normalized RNA/DNA level without ligand (log10) (cyclic di-GMP [1]): 1.714 ± 0.0074
normalized RNA/DNA level with ligand (log10) (cyclic di-GMP [2]): 1.82 ± 0.095

AACUUG
normalized RNA/DNA level without ligand (log10) (cyclic di-GMP [1]): 1.66 ± 0.051
normalized RNA/DNA level with ligand (log10) (cyclic di-GMP [2]): 1.85 ± 0.11

AACUUU
normalized RNA/DNA level without ligand (log10) (cyclic di-GMP [1]): 1.737 ± 0.004
normalized RNA/DNA level with ligand (log10) (cyclic di-GMP [2]): 1.85 ± 0.09

AACUUA
normalized RNA/DNA level without ligand (log10) (cyclic di-GMP [1]): 1.615 ± 0.0013
normalized RNA/DNA level with ligand (log10) (cyclic di-GMP [2]): 1.79 ± 0.17

GACUCA
normalized RNA/DNA level without ligand (log10) (cyclic di-GMP [1]): 1.709 ± 0.011
normalized RNA/DNA level with ligand (log10) (cyclic di-GMP [2]): 1.83 ± 0.11

GACUCU
normalized RNA/DNA level without ligand (log10) (cyclic di-GMP [1]): 1.704 ± 0.005
normalized RNA/DNA level with ligand (log10) (cyclic di-GMP [2]): 1.84 ± 0.12

GACUCC
normalized RNA/DNA level without ligand (log10) (cyclic di-GMP [1]): 1.77 ± 0.0029
normalized RNA/DNA level with ligand (log10) (cyclic di-GMP [2]): 1.89 ± 0.079

GACUCG
normalized RNA/DNA level without ligand (log10) (cyclic di-GMP [1]): 1.78 ± 0.081
normalized RNA/DNA level with ligand (log10) (cyclic di-GMP [2]): 1.87 ± 0.074

GAAUGU
normalized RNA/DNA level without ligand (log10) (cyclic di-GMP [1]): 1.579 ± 0.014
normalized RNA/DNA level with ligand (log10) (cyclic di-GMP [2]): 1.76 ± 0.07
